PMC8413711, “Structure-based analyses of neutralization antibodies interacting with naturally occurring SARS-CoV-2 RBD variants” (Cell Research, 2021)

B1: BD-604 (antibody, V domains shown)
VH: EVQLVESGGGLIQPGGSLRLSCAASGIIVSSNYMTWVRQAPGKGLEWVSVIYSGGSTFYADSVKGRFTISRDNSKNTLYLQMSSLRAEDTAVYYCARDLGPYGMDVWGQGTTVTVSS
VL: DIQLTQSPSFLSASVGDRVTITCRASQGISSDLAWYQQKPGKAPNLLIYAASTLQSGVPSRFSGSGSGTEFTLTISSLQPEDFATYYCQQLNSDLYTFGQGTKLEIK
B2: BD-623 (antibody, V domains shown)
VH: EVQLVESGGGLVQPGGSLRLSCAASGFTVSSNYMSWVRQAPGKGLEWVSIIYSGGSTYYADSVKGRFTISRDNSKNTLYLQMNSLRAEDTAVYYCARDYAGRVWGQGTLVTVSS
VL: QSALTQPASVSGSPGQSITISCTGTSSDVGSYNLVSWYQQRPGKAPKLILYEVTKRPSGVSNRFSGSKSGNTASLAISGLQAEDEADYYCCSYAGSSTWVFGGGTKLTVL
B3: BD-515 (antibody, V domains shown)
VH: EVQLVESGGGLVQPGGSLRLSCAASEFIVSRNYMSWVRQAPGKGLEWVSVIYSGGSTFYADSVKGRFTISRDNSKNTLYLQMNSLRAEDTGVYYCARDRGLVSDYWGQGTLVTVSS
VL: DIQMTQSPSSLSASVGDRVTITCQASQDINKYLNWYQQKPGKAPKLLIFDASHLETGVPSRFSASGSGTDFTFTISSLQPEDIATYYCHQYDNLPRTFGQGTRLEIK
B4: BD-503 (antibody, V domains shown)
VH: EVQLVESGGGLIQPGGSLRLSCAASGLIVSSNYMSWVRQAPGKGLEWVSVLYAGGSTDYAGSVKGRFTISRDNSKNTLYLQMNSLRAEDTAVYYCARDAAVYGIDVWGQGTTVTVSS
VL: not shown
notes: also called BD-503 NAb

The binders below were run against T1, RBD-501Y.V2 (SARS-CoV-2, B.1.351 (501Y.V2) lineage …, K417N | E484K | N501Y) (assay: SPR). Conditions: both partners purified.
T1 construct: also called K417N/E484K/N501Y ternary mutation; B.1.351 lineage RBD

Question: How did the “fold reduction of binding affinity against RBD” value (“fold reduction” for short) turn out when B1 was run?
Answer: 60 fold

Question: B2 was tested. Which “fold reduction” value did it give?
Answer: > 3 fold

Question: Which “fold reduction” value does the source give for B3 here?
Answer: > 3 fold

Question: How did the “fold reduction” value turn out when B4 was run?
Answer: > 3 fold
